Reference: patent US20080119430A1

How the values were obtained:
Test in all cases: cell-based or functional assay
[1] = target: Cdc42 (active Cdc42-GTP, endogenous in HUVECs) (human) (UniProt P60953)
[2] = target: Rac (active Rac-GTP, endogenous in HUVECs) (human) (UniProt P31749)
[3] = target: Rac (active Rac-GTP, endogenous in NIH3T3 cells)

Rac (active Rac-GTP, endogenous in HUVECs) (human), sequence (P31749 whole entry): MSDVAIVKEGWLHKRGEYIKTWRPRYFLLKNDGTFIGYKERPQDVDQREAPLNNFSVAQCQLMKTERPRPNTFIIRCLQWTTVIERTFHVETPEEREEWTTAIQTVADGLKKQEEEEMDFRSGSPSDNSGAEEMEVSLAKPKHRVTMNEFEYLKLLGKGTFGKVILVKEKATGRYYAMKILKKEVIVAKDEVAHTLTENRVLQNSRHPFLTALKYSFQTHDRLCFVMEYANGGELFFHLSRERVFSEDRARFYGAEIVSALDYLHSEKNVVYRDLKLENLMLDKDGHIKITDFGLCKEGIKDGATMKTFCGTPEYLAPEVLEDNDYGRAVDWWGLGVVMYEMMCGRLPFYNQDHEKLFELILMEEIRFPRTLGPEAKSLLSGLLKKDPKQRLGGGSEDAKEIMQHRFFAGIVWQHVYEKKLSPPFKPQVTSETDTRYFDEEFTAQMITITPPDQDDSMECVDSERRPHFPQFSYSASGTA
Cdc42 (active Cdc42-GTP, endogenous in HUVECs) (human), sequence (P60953 1-188 limits assumed): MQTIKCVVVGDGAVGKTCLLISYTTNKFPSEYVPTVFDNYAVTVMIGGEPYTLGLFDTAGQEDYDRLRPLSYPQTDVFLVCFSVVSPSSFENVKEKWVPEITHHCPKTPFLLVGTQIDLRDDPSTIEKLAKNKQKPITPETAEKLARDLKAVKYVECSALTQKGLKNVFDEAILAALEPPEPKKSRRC

Work on “BNO69 (endogenous protein in HUVECs, knocked down by adenoviral antisense BNO69R) (from UniProt Q8N264 131-748) (enzyme)” yielded a fold increase in active Cdc42 in HUVECs after BNO69 knockdown with BNO69R, compared to empty vector [1] of 1.1 fold and a fold increase in active Rac in HUVECs after BNO69 knockdown with BNO69R, compared to empty vector [2] of 1.1 fold.

Substance “BNO69 (endogenous protein in NIH3T3 cells, knocked down by retroviral antisense BNO69R) (enzyme)” has an increase in Rac activity (Rac-GTP pull-down) in NIH3T3 cells after inhibition of BNO69 expression with antisense BNO69R [3] of 3 fold.
